Reference: article PMC10397247

Key:
4H3410-AA = target: T1, 4H3410-AA; assay: two-hybrid library CCmax; details: mean of both orientations;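 further: natural log of median RNA to DNA barcode read ratio; higher means stronger binding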
T1 chain: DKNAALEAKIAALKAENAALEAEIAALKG

4H1626-AA = target: T2, 4H1626-AA; assay: two-hybrid library CCmax; details: mean of both orientations;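 further: natural log of median RNA to DNA barcode read ratio; higher means stronger binding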
T2 chain: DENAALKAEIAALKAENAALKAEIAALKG

4H570-AA = target: T3, 4H570-AA; assay: two-hybrid library CCmax; details: mean of both orientations;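 further: natural log of median RNA to DNA barcode read ratio; higher means stronger binding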
T3 chain: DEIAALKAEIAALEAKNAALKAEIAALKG

4H2162-AA = target: T4, 4H2162-AA; assay: two-hybrid library CCmax; details: mean of both orientations;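 further: natural log of median RNA to DNA barcode read ratio; higher means stronger binding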
T4 chain: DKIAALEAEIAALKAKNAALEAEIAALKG

4H1597-AA = target: T5, 4H1597-AA; assay: two-hybrid library CCmax; details: mean of both orientations
T5 chain: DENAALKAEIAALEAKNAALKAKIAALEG

4H310-AA = target: T6, 4H310-AA; assay: two-hybrid library CCmax; details: mean of both orientations
T6 chain: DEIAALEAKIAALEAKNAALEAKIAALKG

4H3165-AA = target: T7, 4H3165-AA; assay: two-hybrid library CCmax; details: mean of both orientations
T7 chain: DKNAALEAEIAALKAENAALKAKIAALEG

4H2649-AA = target: T8, 4H2649-AA; assay: two-hybrid library CCmax; details: mean of both orientations
T8 chain: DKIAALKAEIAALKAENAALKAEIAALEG

4H2698-AA = target: T9, 4H2698-AA; assay: two-hybrid library CCmax; details: mean of both orientations
T9 chain: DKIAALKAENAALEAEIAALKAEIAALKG

4H797-AA = target: T10, 4H797-AA; assay: two-hybrid library CCmax; details: mean of both orientations
T10 chain: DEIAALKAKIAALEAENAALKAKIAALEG

4H458-AA = target: T11, 4H458-AA; assay: two-hybrid library CCmax; details: mean of both orientations
T11 chain: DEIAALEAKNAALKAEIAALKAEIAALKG

4H2109-AA = target: T12, 4H2109-AA; assay: two-hybrid library CCmax; details: mean of both orientations
T12 chain: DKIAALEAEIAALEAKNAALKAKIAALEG

4H536-AA = target: T13, 4H536-AA; assay: two-hybrid library CCmax; details: mean of both orientations
T13 chain: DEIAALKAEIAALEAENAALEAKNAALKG

4H710-AA = target: T14, 4H710-AA; assay: two-hybrid library CCmax; details: mean of both orientations
T14 chain: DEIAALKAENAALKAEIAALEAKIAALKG

4H94-AA = target: T15, 4H94-AA; assay: two-hybrid library CCmax; details: mean of both orientations
T15 chain: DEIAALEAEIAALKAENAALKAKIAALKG

4H3016-AA = target: T16, 4H3016-AA; assay: two-hybrid library CCmax; details: mean of both orientations
T16 chain: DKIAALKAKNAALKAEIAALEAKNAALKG

4H3130-AA = target: T17, 4H3130-AA; assay: two-hybrid library CCmax
T17 chain: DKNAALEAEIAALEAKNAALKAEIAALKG

4H891-AA = target: T18, 4H891-AA; assay: two-hybrid library CCmax; details: mean of both orientations
T18 chain: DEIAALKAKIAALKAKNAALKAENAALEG

4H850-AA = target: T19, 4H850-AA; assay: two-hybrid library CCmax; details: mean of both orientations
T19 chain: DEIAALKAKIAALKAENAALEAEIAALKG

4H909-AA = target: T20, 4H909-AA; assay: two-hybrid library CCmax; details: mean of both orientations
T20 chain: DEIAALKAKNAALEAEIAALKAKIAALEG

4H2438-AA = target: T21, 4H2438-AA; assay: two-hybrid library CCmax; details: mean of both orientations
T21 chain: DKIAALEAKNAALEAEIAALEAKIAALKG

4H930-AA = target: T22, 4H930-AA; assay: two-hybrid library CCmax; details: mean of both orientations
T22 chain: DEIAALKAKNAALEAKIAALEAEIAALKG

4H1842-AA = target: T23, 4H1842-AA; assay: two-hybrid library CCmax; details: mean of both orientations
T23 chain: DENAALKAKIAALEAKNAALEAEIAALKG

4H1579-AA = target: T24, 4H1579-AA; assay: two-hybrid library CCmax
T24 chain: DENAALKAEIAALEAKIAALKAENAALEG

4H2330-AA = target: T25, 4H2330-AA; assay: two-hybrid library CCmax; details: mean of both orientations
T25 chain: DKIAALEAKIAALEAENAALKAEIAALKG

4H745-AA = target: T26, 4H745-AA; assay: two-hybrid library CCmax; details: mean of both orientations
T26 chain: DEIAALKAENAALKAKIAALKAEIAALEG

4H3395-AA = target: T27, 4H3395-AA; assay: two-hybrid library CCmax; details: mean of both orientations
T27 chain: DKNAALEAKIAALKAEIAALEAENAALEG

4H3753-AA = target: T28, 4H3753-AA; assay: two-hybrid library CCmax; details: mean of both orientations
T28 chain: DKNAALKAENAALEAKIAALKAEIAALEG

4H485-AA = target: T29, 4H485-AA; assay: two-hybrid library CCmax; details: mean of both orientations
T29 chain: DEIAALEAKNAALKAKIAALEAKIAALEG

4H171-AA = target: T30, 4H171-AA; assay: two-hybrid library CCmax; details: mean of both orientations
T30 chain: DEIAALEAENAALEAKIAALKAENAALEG

4H174-AA = target: T31, 4H174-AA; assay: two-hybrid library CCmax; details: mean of both orientations
T31 chain: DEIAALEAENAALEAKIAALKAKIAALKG

4H3381-AA = target: T32, 4H3381-AA; assay: two-hybrid library CCmax; details: mean of both orientations
T32 chain: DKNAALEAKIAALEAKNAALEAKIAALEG

4H3120-AA = target: T33, 4H3120-AA; assay: two-hybrid library CCmax; details: mean of both orientations
T33 chain: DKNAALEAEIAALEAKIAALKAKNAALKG

4H1864-AA = target: T34, 4H1864-AA; assay: two-hybrid library CCmax; details: mean of both orientations
T34 chain: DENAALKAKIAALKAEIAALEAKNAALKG

4H3697-AA = target: T35, 4H3697-AA; assay: two-hybrid library CCmax; details: mean of both orientations
T35 chain: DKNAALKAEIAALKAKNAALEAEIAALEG

4H2473-AA = target: T36, 4H2473-AA; assay: two-hybrid library CCmax; details: mean of both orientations
T36 chain: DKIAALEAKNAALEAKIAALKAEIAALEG

4H2253-AA = target: T37, 4H2253-AA; assay: two-hybrid library CCmax; details: mean of both orientations
T37 chain: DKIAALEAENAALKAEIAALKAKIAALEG

4H3590-AA = target: T38, 4H3590-AA; assay: two-hybrid library CCmax; details: mean of both orientations
T38 chain: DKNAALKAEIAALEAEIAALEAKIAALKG

4H1877-AA = target: T39, 4H1877-AA; assay: two-hybrid library CCmax; details: mean of both orientations
T39 chain: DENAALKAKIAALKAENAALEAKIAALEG

4H2389-AA = target: T40, 4H2389-AA; assay: two-hybrid library CCmax; details: mean of both orientations
T40 chain: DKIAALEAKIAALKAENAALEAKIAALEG

4H2274-AA = target: T41, 4H2274-AA; assay: two-hybrid library CCmax; details: mean of both orientations
T41 chain: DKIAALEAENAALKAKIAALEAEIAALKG

4H3865-AA = target: T42, 4H3865-AA; assay: two-hybrid library CCmax; details: mean of both orientations
T42 chain: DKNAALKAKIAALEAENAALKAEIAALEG

4H629-AA = target: T43, 4H629-AA; assay: two-hybrid library CCmax; details: mean of both orientations
T43 chain: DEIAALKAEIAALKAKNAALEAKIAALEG

4H2865-AA = target: T44, 4H2865-AA; assay: two-hybrid library CCmax
T44 chain: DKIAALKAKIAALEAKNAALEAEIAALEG

4H3009-AA = target: T45, 4H3009-AA; assay: two-hybrid library CCmax; details: mean of both orientations
T45 chain: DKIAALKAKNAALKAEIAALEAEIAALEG

4H2725-AA = target: T46, 4H2725-AA; assay: two-hybrid library CCmax; details: mean of both orientations
T46 chain: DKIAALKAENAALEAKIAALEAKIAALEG

P6bH1 = target: T47, P6bH1; assay: two-hybrid library CCNG1
T47 chain: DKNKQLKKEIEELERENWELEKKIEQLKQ

P3bH1 = target: T48, P3bH1; assay: two-hybrid library CCNG1
T48 chain: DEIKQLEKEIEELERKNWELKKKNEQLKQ

P7bH1 = target: T49, P7bH1; assay: two-hybrid library CCNG1
T49 chain: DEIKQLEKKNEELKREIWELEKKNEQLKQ

P4bH1 = target: T50, P4bH1; assay: two-hybrid library CCNG1
T50 chain: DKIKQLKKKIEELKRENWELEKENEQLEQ

P5bH1 = target: T51, P5bH1; assay: two-hybrid library CCNG1
T51 chain: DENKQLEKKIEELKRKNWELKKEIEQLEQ

P9bH1 = target: T52, P9bH1; assay: two-hybrid library CCNG1
T52 chain: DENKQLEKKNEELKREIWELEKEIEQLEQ

P2bH1 = target: T53, P2bH1; assay: two-hybrid library CCNG1
T53 chain: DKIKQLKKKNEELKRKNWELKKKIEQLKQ

P8bH1 = target: T54, P8bH1; assay: two-hybrid library CCNG1
T54 chain: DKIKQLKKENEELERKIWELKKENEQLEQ

An interaction score (4H3410-AA) of -1.51, an interaction score (4H1626-AA) of -1.19 and an interaction score (4H570-AA) of -0.453 were found for DENAALKAEIAALEAKIAALKAENAALEG [4H1579-AA] in this work. For the same binder, the interaction score (4H2162-AA) was -1.63, the interaction score (4H1597-AA) was -0.651 and the interaction score (4H310-AA) was -1.28. It also gave an interaction score (4H3165-AA) of -1.86, an interaction score (4H2649-AA) of -1.11 and an interaction score (4H2698-AA) of -1.29. For the same binder, the interaction score (4H797-AA) was -1.46, the interaction score (4H458-AA) was -1.8 and the interaction score (4H2109-AA) was 0.8. It also gave an interaction score (4H536-AA) of 0.42, an interaction score (4H710-AA) of -1.33 and an interaction score (4H94-AA) of -1.21. It also gave an interaction score (4H3016-AA) of 0.0969, an interaction score (4H3130-AA) of -1.12 and an interaction score (4H891-AA) of -1. The interaction score (4H850-AA) was -1.18, the interaction score (4H909-AA) was -1.94 and the interaction score (4H2438-AA) was -1.18. It also gave an interaction score (4H930-AA) of -1.7, an interaction score (4H1842-AA) of -2.03 and an interaction score (4H1579-AA) of 0.482. The interaction score (4H2330-AA) was -1.81, the interaction score (4H745-AA) was 1.21 and the interaction score (4H3395-AA) was 0.656. For the same binder, the interaction score (4H3753-AA) was 1.01, the interaction score (4H485-AA) was -0.986 and the interaction score (4H171-AA) was -1.67. For the same binder, the interaction score (4H174-AA) was -0.805, the interaction score (4H3381-AA) was -1.48 and the interaction score (4H3120-AA) was 0.595. The interaction score (4H1864-AA) was 2.38, the interaction score (4H3697-AA) was -1.92 and the interaction score (4H2473-AA) was -1.09. The interaction score (4H2253-AA) was -1.23, the interaction score (4H3590-AA) was 1.2 and the interaction score (4H1877-AA) was -0.858. The interaction score (4H2389-AA) was -1.56, the interaction score (4H2274-AA) was -1.24 and the interaction score (4H3865-AA) was -1.22. It also gave an interaction score (4H629-AA) of -1.42, an interaction score (4H2865-AA) of -1.53 and an interaction score (4H3009-AA) of -2.01. For the same binder, the interaction score (4H2725-AA) was -1.31.

An interaction score (P6bH1) of -1.16, an interaction score (P3bH1) of -0.234 and an interaction score (P7bH1) of 0.231 were found for DKIKQLKKKNEELKRKNWELKKKIEQLKQ [P2bH1] in this work. For the same binder, the interaction score (P4bH1) was -0.137, the interaction score (P5bH1) was -0.796 and the interaction score (P9bH1) was 0.693. For the same binder, the interaction score (P2bH1) was -0.432 and the interaction score (P8bH1) was -0.331.
